Assays:
[1] = molecular target: Clr-11-FcHis fusion protein (Clr-11^WAG in pHLsec-FcHis, uncleaved) (rat (WAG strain) | human) (UniProt Q0H8B9); test: AUC; sedimentation velocity, 0.2 mg/ml, 48000 rpm, 20 °C, 10 mM HEPES pH 7.0, 150 mM NaCl, 10 mM NaN3, c(s) model
[2] = molecular target: Clr-11-FcHis fusion protein (Clr-11^WAG in pHLsec-FcHis, uncleaved) (rat (WAG strain) | human) (UniProt Q0H8B9); test: SEC; gel filtration on Superdex 200 HR 10/30, room temperature
[3] = molecular target: Clr-11^WAG V65-M207, histidine-tagged, expressed from pHLsec (rat (WAG strain)) (UniProt Q0H8B9); test: non-reducing SDS-PAGE with Western blot; small-scale expression test; 10 ul of culture supernatant 3 days after transfection, 15% SDS-PAGE under non-reducing conditions, detected by PentaHis mAb; shows covalent dimers
[4] = molecular target: Clr-11^WAG V65-M207, histidine-tagged, expressed from pHLsec (rat (WAG strain)) (UniProt Q0H8B9); test: AUC; sedimentation velocity, 0.2 mg/ml, 48000 rpm, 20 °C, 10 mM HEPES pH 7.0, 150 mM NaCl, 10 mM NaN3, c(s) model
[5] = molecular target: Clr-11^WAG V65-M207, histidine-tagged, expressed from pHLsec (rat (WAG strain)) (UniProt Q0H8B9); test: AUC; sedimentation equilibrium, 0.1 mg/ml, 12-15-18-21-24000 rpm, 4 °C, non-interacting discrete species model
[6] = molecular target: Clr-11^WAG V65-M207, histidine-tagged, expressed from pHLsec (rat (WAG strain)) (UniProt Q0H8B9); test: SEC; gel filtration on Superdex 200 HR 10/30, room temperature
[7] = molecular target: Clr-11^WAG cleaved from the pHLsec-FcHis fusion by HRV 3C protease (rat (WAG strain)) (UniProt Q0H8B9); test: AUC; sedimentation velocity, 0.2 mg/ml, 48000 rpm, 20 °C, 10 mM HEPES pH 7.0, 150 mM NaCl, 10 mM NaN3, c(s) model
[8] = molecular target: Clr-11^WAG cleaved from the pHLsec-FcHis fusion by HRV 3C protease (rat (WAG strain)) (UniProt Q0H8B9); test: SEC; gel filtration on Superdex 200 HR 10/30, room temperature
[9] = molecular target: NKR-P1B^SD C-terminal FcHis fusion protein (pHLsec-FcHis, uncleaved) (rat (SD strain) | human) (UniProt A4KWA1); test: not stated; data not shown; purified C-terminal FcHis fusion proteins
[10] = molecular target: NKR-P1B^WAG C-terminal FcHis fusion protein (pHLsec-FcHis, uncleaved) (rat (WAG strain) | human) (UniProt Q5NKN4); test: as above
[11] = molecular target: pYD5 Fc-NKR-P1B^SD fusion protein (uncleaved) (human | rat (SD strain)) (UniProt A4KWA1); test: AUC; sedimentation velocity, 0.2 mg/ml, 48000 rpm, 20 °C, 10 mM HEPES pH 7.0, 150 mM NaCl, 10 mM NaN3, c(s) model
[12] = molecular target: pYD5 Fc-NKR-P1B^SD fusion protein (uncleaved) (human | rat (SD strain)) (UniProt A4KWA1); test: SEC; gel filtration on Superdex 200 HR 10/30, room temperature
[13] = molecular target: pYD5 Fc-NKR-P1B^WAG fusion protein (uncleaved) (human | rat (WAG strain)) (UniProt Q5NKN4); test: AUC; sedimentation velocity, 0.2 mg/ml, 48000 rpm, 20 °C, 10 mM HEPES pH 7.0, 150 mM NaCl, 10 mM NaN3, c(s) model
[14] = molecular target: pYD5 Fc-NKR-P1B^WAG fusion protein (uncleaved) (human | rat (WAG strain)) (UniProt Q5NKN4); test: SEC; gel filtration on Superdex 200 HR 10/30, room temperature
[15] = molecular target: the molecule itself; test: SEC + other: non-reducing SDS-PAGE; gel filtration on Superdex 200 HR 10/30 after TEV cleavage, and 4-20% SDS-PAGE under reducing and non-reducing conditions
[16] = molecular target: the molecule itself; test: non-reducing SDS-PAGE with Western blot; small-scale expression test; 10 ul of culture supernatant 3 days after transfection, 15% SDS-PAGE under non-reducing conditions, detected by PentaHis mAb; shows covalent dimers

Question: With “Clr-11-FcHis fusion protein (Clr-11^WAG in pHLsec-FcHis, uncleaved) (from UniProt Q0H8B9 65-207) (Fc fusion)” as the molecule, how does the stoichiometry N [1] read?
Answer: Its stoichiometry N is 2.

Question: And the stoichiometry N [2]?
Answer: The stoichiometry N was 2.

Question: Which results are given for “Clr-11^WAG V65-M207, histidine-tagged, expressed from pHLsec (from UniProt Q0H8B9 65-207) (domain or fragment)”?
Answer: stoichiometry N [3]: 2; stoichiometry N [4]: 2; stoichiometry N [5]: 2; stoichiometry N [6]: 2

Question: Which results are given for “Clr-11^WAG cleaved from the pHLsec-FcHis fusion by HRV 3C protease (from UniProt Q0H8B9 65-207) (domain or fragment)”?
Answer: stoichiometry N [7]: 2; stoichiometry N [8]: 2

Question: “NKR-P1B^SD C-terminal FcHis fusion protein (pHLsec-FcHis, uncleaved) (from UniProt A4KWA1 78-223) (Fc fusion)” was tested. Which stoichiometry N [9] did it give?
Answer: The stoichiometry N was 2.

Question: Which stoichiometry N [10] does the source give for “NKR-P1B^WAG C-terminal FcHis fusion protein (pHLsec-FcHis, uncleaved) (from UniProt Q5NKN4 78-223) (Fc fusion)” here?
Answer: The stoichiometry N was 2.

Question: What does the source list for “pYD5 Fc-NKR-P1B^SD fusion protein (uncleaved) (from UniProt A4KWA1 78-223) (Fc fusion)”?
Answer: stoichiometry N [11]: 2; stoichiometry N [12]: 2

Question: “pYD5 Fc-NKR-P1B^WAG fusion protein (uncleaved) (from UniProt Q5NKN4 78-223) (Fc fusion)” was tested. Which stoichiometry N [13] did it give?
Answer: The stoichiometry N was 2.

Question: What about the stoichiometry N [14] of the same molecule?
Answer: The stoichiometry N was 2.

B1: NKR-P1B^SD ectodomain cleaved from the pYD5 Fc fusion by TEV protease (domain or fragment, rat (SD strain), UniProt A4KWA1 78-223, looked up)
chain: VQENRTKTTDSPAKLKCPKDWHSHQDKCFHVSQTSITWKGSLADCGGKGATLLLVQDQEELRFLRNLTKRISSSFWIGLSYTLSDEKWKWINGSTLNSDALNITGDTEKDSCASVSQDKVLSESCDSDNIWICQKELKRESTCNDS
notes: rat NKR-P1B of the SD strain, ectodomain construct V78-S223; Obtained as a separable mixture of monomer and covalent dimer; also called pYD5_NKR-P1B^SD (monomeric and dimeric fractions); not shown: Fc (human IgG), N-terminal, cleaved
Question: How did the “stoichiometry N” value [15] turn out when B1 was run?
Answer: The value was 2.

B2: NKR-P1B^WAG V78-S223, histidine-tagged, expressed from pHLsec (domain or fragment, rat (WAG strain))
chain: ETGVQENRTKTTDSPTKLKCPKDWHSHQDKCFHVSQAPNTWNKSLADCGGKGATLLLIQDQEELRFLRNLTKGKDRSFWIGLNYTLPDKNWKWINSSTLNSDVLSIFGDTKQNSCASISQDKVLSESCDSDNLWICQKELKCECMCNGS
notes: residues that the pHLsec vector adds to the N-terminus of the construct; rat NKR-P1B of the WAG strain, extracellular part with slightly shortened N-terminus, V78-S223; source: suspension-adapted HEK293T, transiently transfected, secreted, culture supernatant
Question: For B2, which “stoichiometry N” value [16] is on record?
Answer: The value was 2.

B3: NKR-P1B^WAG ectodomain cleaved from the pYD5 Fc fusion by TEV protease (domain or fragment, rat (WAG strain), UniProt Q5NKN4 78-223, looked up)
chain: VQENRTKTTDSPTKLKCPKDWHSHQDKCFHVSQAPNTWNKSLADCGGKGATLLLIQDQEELRFLRNLTKGKDRSFWIGLNYTLPDKNWKWINSSTLNSDVLSIFGDTKQNSCASISQDKVLSESCDSDNLWICQKELKCECMCNGS
notes: rat NKR-P1B of the WAG strain, ectodomain construct V78-S223; Disulphide dimer; also called pYD5_NKR-P1B^WAG cleaved off by TEV protease; not shown: Fc (human IgG), N-terminal, cleaved
Question: How did the “stoichiometry N” value [15] turn out when B3 was run?
Answer: Its value is 2.

From publication PMC6882821, “Production of recombinant soluble dimeric C-type lectin-like receptors of rat natural killer cells” (Scientific Reports, 2019)
